In IntAct's records for PubMed 17290227:

B1: Docking protein 3 (Homo sapiens), Q7L591 (parent)
chain: MTRGARLRSDARAQLNQLSLDGGTGSGQKGKCEEFPSSLSSVSPGLEAAALLLAVTMDPLETPIKDGILYQQHVKFGKKCWRKVWALLYAGGPSGVARLESWEVRDGGLGAAGDRSAGPGRRGERRVIRLADCVSVLPADGESCPRDTGAFLLTTTERSHLLAAQHRQAWMGPICQLAFPGTGEASSGSTDAQSPKRGLVPMEENSIYSSWQEVGEFPVVVQRTEAATRCQLKGPALLVLGPDAIQLREAKGTQALYSWPYHFLRKFGSDKGVFSFEAGRRCHSGEGLFAFSTPCAPDLCRAVAGAIARQRERLPELTRPQPCPLPRATSLPSLDTPGELREMPPGPEPPTSRKMHLAEPGPQSLPLLLGPEPNDLASGLYASVCKRASGPPGNEHLYENLCVLEASPTLHGGEPEPHEGPGSRSPTTSPIYHNGQDLSWPGPANDSTLEAQYRRLLELDQVEGTGRPDPQAGFKAKLVTLLSRERRKGPAPCDRP
partner: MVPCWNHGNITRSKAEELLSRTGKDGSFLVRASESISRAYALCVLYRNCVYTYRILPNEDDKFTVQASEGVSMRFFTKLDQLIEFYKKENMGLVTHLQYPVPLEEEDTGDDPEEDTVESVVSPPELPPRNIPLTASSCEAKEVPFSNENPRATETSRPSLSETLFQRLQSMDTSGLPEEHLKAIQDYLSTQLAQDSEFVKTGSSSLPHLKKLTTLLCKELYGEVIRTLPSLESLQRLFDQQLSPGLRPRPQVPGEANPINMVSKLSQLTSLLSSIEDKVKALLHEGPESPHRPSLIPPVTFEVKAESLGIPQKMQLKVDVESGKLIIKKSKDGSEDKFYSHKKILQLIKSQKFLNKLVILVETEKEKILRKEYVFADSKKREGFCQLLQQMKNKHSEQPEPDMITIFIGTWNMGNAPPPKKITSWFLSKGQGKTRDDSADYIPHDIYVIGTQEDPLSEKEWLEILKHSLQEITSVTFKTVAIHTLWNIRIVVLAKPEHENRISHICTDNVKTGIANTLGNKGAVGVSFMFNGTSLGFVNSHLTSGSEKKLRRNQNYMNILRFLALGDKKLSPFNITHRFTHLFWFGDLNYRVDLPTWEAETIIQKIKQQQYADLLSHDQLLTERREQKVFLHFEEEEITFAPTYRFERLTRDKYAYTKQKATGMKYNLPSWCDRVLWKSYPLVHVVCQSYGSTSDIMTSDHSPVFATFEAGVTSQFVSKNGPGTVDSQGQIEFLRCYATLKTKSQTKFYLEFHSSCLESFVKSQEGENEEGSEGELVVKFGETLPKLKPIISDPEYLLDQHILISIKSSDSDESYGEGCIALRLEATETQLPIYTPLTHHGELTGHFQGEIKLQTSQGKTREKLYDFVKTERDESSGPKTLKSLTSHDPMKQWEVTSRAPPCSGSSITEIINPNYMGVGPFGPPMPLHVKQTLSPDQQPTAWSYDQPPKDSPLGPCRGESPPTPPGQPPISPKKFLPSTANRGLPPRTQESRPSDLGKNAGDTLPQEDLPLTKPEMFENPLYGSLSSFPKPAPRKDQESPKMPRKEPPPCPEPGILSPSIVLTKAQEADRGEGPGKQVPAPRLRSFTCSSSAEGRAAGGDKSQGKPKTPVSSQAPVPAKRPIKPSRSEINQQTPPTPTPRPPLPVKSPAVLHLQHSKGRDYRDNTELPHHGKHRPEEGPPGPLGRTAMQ

Variants of: B1
Conditions: with ship1_human INPP5D
For R197F, the “effect of a mutation on the interaction” value was “decreasing interaction”.
